EP1167527A9 (Euroscreen S.A., dated 2002)
One block for each binder: values may come before it.

Columns and labels:
[1] = target: T1, chemokine receptor 5 (CCR5; AC P51681) (human, UniProt P51681 1-352); assay: cell-based or functional assay
chemokine receptor CCR1 [2] = target: T2, chemokine receptor CCR1 (human, UniProt P32246 1-355); assay: cell-based or functional assay
T2 sequence (looked up): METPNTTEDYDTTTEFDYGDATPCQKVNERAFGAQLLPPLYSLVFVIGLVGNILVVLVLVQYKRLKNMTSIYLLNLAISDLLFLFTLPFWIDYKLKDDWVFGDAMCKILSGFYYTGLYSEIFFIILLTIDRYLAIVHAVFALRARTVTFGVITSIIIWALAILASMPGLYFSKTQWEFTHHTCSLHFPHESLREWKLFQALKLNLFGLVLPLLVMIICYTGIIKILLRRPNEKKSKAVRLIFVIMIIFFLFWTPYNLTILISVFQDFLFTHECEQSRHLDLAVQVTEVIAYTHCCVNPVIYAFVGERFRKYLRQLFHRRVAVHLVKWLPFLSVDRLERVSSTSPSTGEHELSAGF

chemokine receptor CCR1 [3] = target: T2, chemokine receptor CCR1; assay: radioligand competition binding, CCR1
chemokine receptor CCR3 [4] = target: T3, chemokine receptor CCR3 (human, UniProt P51677 1-355); assay: cell-based or functional assay
T3 sequence (looked up): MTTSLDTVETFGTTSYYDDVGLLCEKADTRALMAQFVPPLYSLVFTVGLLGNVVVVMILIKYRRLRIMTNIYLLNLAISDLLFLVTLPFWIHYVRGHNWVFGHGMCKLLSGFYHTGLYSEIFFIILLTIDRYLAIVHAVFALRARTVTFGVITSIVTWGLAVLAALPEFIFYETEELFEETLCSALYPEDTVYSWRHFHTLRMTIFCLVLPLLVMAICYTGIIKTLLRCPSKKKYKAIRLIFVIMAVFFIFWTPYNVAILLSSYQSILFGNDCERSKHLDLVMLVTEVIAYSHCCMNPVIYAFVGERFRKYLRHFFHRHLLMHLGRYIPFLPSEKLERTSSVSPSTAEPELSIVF

chemokine receptor CCR1 [5] = target: T2, chemokine receptor CCR1; assay: radioligand competition, 125I-Rantes tracer, CCR1
chemokine receptor CCR3 [6] = target: T3, chemokine receptor CCR3; assay: radioligand competition, 125I-Eotaxin tracer, CCR3
[7] = target: T1, chemokine receptor 5 (CCR5; AC P51681); assay: radioligand competition, 125I-MIP 1-alpha tracer, CCR5
chemokine receptor CCR1 [8] = target: T2, chemokine receptor CCR1; assay: radioligand competition, 0.1 nM 125I-Rantes tracer, crude membranes of CHO-K1 cells expressing CCR1
chemokine receptor CCR3 [9] = target: T3, chemokine receptor CCR3; assay: radioligand competition, 0.1 nM 125I-Eotaxin tracer, crude membranes of CHO-K1 cells expressing CCR3
[10] = target: T1, chemokine receptor 5 (CCR5; AC P51681); assay: radioligand competition, 0.1 nM 125I-MIP 1-alpha tracer, crude membranes of CHO-K1 cells expressing CCR5

T1 sequence (P51681 whole entry, one chain of several): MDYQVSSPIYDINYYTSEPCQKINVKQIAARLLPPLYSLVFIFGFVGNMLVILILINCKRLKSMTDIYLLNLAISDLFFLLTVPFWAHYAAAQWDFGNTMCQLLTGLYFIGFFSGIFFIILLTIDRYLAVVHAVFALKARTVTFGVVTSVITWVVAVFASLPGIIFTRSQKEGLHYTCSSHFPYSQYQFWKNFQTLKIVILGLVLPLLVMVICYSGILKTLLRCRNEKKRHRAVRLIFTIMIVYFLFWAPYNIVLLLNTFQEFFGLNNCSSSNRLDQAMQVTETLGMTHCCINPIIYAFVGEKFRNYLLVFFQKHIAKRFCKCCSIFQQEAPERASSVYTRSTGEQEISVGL

aequorin assay (intracellular calcium), CHO-K1 cells expressing CCR5, EC50 [1]: 3.3 nM
B1: MIP 1-alpha (ligand, UniProt P10147 24-92, looked up)
chain: SLAADTPTACCFSYTSRQIPQNFIADYFETSSQCSKPGVIFLTKRSRQVCADPSEEWVQKYVSDLELSA

functional aequorin-based assay, EC50 (chemokine receptor CCR1 [2]): 6.3 nM | aequorin assay (intracellular calcium), CHO-K1 cells expressing CCR5, EC50 [1]: 2.4 nM
B2: RANTES (ligand, UniProt P13501 24-91, looked up)
chain: SPYSSDTTPCCFAYIARPLPRAHIKEYFYTSGKCSNPAVVFVTRKNRQVCANPEKKWVREYINSLEMS

Ki (chemokine receptor CCR1 [3]): 100 nM
B3: full size human chemokine HCC-1, amino acid residues 1-74 (ligand)
chain: TKTESSSRGPYHPSECCFTYTTYKIPRQRIMDYYETNSQCSKPGIVFITKRGHSVCTNPSDKWVQDYIKDMKEN
notes: 74-residue chemokine, Mr 8673; Swiss-Prot Q16627 is printed for the HCC-1 precursor; also called full-size HCC-1; full length HCC-1

functional aequorin-based assay, EC50 (chemokine receptor CCR1 [2]): 2.8 nM | functional aequorin-based assay, EC50 (chemokine receptor CCR3 [4]): 78 nM | aequorin assay (intracellular calcium), CHO-K1 cells expressing CCR5, EC50 [1]: 4.8 nM | Ki (chemokine receptor CCR1 [5]): 0.023 nM | Ki (chemokine receptor CCR3 [6]): 2.7 nM | Ki [7]: 0.04 nM | IC50 (chemokine receptor CCR1 [8]): 2.3 nM | IC50 (chemokine receptor CCR3 [9]): 78 nM | IC50 [10]: 0.04 nM
B4: processed human chemokine PHC-1 (ligand)
chain: GPYHPSECCFTYTTYKIPRQRIMDYYETNSQCSKPGIVFITKRGHSVCTNPSDKWVQDYIKDMKEN
notes: Purified from human hemofiltrate or made by tryptic digestion of HCC-1 (1-74); also called HCC-1[9-74]; HCC-1, residues 9-74
